Measured values published in paper PMC5575768.

Target: filamentous actin from rabbit skeletal muscle (rabbit) (UniProt P68135)
Test: differential scanning calorimetry

## α-tropomyosin D230N, with N-terminal ala-ser (natural protein)
  melt temperature of the Tm–actin interaction: 47.9 °C

## α-tropomyosin, wild type, with N-terminal ala-ser (natural protein)
  melt temperature of the Tm–actin interaction: 47.2 °C
  melt temperature of the Tn–Tm–actin interaction (Tn with cTnT R92L): 47.3 °C
